Data from article PMC10123104, “YbiB: a novel interactor of the GTPase ObgE”.
Changes are numbered by the printed parent chain.

Tests used:
[1] = target: T1, YbiB Arg123Glu (Escherichia coli BW25113, UniProt P30177 1-320, R123E); test: EMSA; EMSA: 20 mM HEPES pH 7.5, 150 mM NaCl, 5 mM MgCl2, 2 mM DTT, 5% glycerol, 30 min at 37 C; 6% PAGE in 1x TBE at room temperature; conditions: protein: recombinant; tags: N-terminal His6, thrombin site (pET28a); chain copies: 2; label: 5'-32P; single strand
T1 sequence: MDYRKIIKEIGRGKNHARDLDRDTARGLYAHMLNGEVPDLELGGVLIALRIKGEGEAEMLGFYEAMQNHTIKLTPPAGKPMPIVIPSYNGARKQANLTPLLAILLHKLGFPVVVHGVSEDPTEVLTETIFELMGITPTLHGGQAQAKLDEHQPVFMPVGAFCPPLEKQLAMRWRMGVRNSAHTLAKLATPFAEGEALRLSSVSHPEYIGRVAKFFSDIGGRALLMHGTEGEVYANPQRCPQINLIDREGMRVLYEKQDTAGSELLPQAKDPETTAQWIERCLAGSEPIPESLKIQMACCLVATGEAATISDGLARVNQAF

[2] = target: T2, YbiB Arg92Glu (Escherichia coli BW25113, UniProt P30177 1-320, R92E); test: as above; conditions: protein: recombinant; tags: N-terminal His6, thrombin site (pET28a); chain copies: 2; label: 5'-32P; single strand
T2 sequence: T1 sequence with R92E, E123R

B1: EMSA_probe (58-nt ssDNA) (ssDNA)
DNA: GCTTTTGATGTACCAATGCATCACCATCACCATCAGGAAATGGGTAAGATGCTTGTAG
[1]
  binding signal: > 10 fold higher apparent KD than WT
[2]
  binding signal: > 10 fold higher apparent KD than WT
